Data on one molecule can be found in PMC3458550.

The test addresses flag-tagged Ran Q69L (GTPase-inactive mutant, RanGTP locked form), P62826. Nature of the test: co-IP. The note with it: remark: other sources report otherwise.

B1: EGFP-tagged full length human IPO5 (importin 5), O00410-3 1-1115 (natural protein)
chain: MPEDQVGKLEATENTISAMAAAAAEQQQFYLLLGNLLSPDNVVRKQAEETYENIPGQSKITFLLQAIRNTTAAEEARQMAAVLLRRLLSSAFDEVYPALPSDVQTAIKSELLMIIQMETQSSMRKKVCDIAAELARNLIDEDGNNQWPEGLKFLFDSVSSQNVGLREAALHIFWNFPGIFGNQQQHYLDVIKRMLVQCMQDQEHPSIRTLSARATAAFILANEHNVALFKHFADLLPGFLQAVNDSCYQNDDSVLKSLVEIADTVPKYLRPHLEATLQLSLKLCGDTSLNNMQRQLALEVIVTLSETAAAMLRKHTNIVAQTIPQMLAMMVDLEEDEDWANADELEDDDFDSNAVAGESALDRMACGLGGKLVLPMIKEHIMQMLQNPDWKYRHAGLMALSAIGEGCHQQMEGILNEIVNFVLLFLQDPHPRVRYAACNAVGQMATDFAPGFQKKFHEKVIAALLQTMEDQGNQRVQAHAAAALINFTEDCPKSLLIPYLDNLVKHLHSIMVLKLQELIQKGTKLVLEQVVTSIASVADTAEEKFVPYYDLFMPSLKHIVENAVQKELRLLRGKTIECISLIGLAVGKEKFMQDASDVMQLLLKTQTDFNDMEDDDPQISYMISAWARMCKILGKEFQQYLPVVMGPLMKTASIKPEVALLDTQDMENMSDDDGWEFVNLGDQQSFGIKTAGLEEKSTACQMLVCYAKELKEGFVEYTEQVVKLMVPLLKFYFHDGVRVAAAESMPLLLECARVRGPEYLTQMWHFMCDALIKAIGTEPDSDVLSEIMHSFAKCIEVMGDGCLNNEHFEELGGILKAKLEEHFKNQELRQVKRQDEDYDEQVEESLQDEDDNDVYILTKVSDILHSIFSSYKEKVLPWFEQLLPLIVNLICPHRPWPDRQWGLCIFDDVIEHCSPASFKYAEYFLRPMLQYVCDNSPEVRQAAAYGLGVMAQYGGDNYRPFCTEALPLLVRVIQSADSKTKENVNATENCISAVGKIMKFKPDCVNVEEVLPHWLSWLPLHEDKEEAVQTFNYLCDLIESNHPIVLGPNNTNLPKIFSIIAEGEMHEAIKHEDPCAKRLANVVRQVQTSGGLWTECIAQLSPEQQAAIQELLNSA
Molecule B1 showed a fold co-precipitated (IPO5/Ran) against Ran T24N of 2 fold.
